Measured values from US20170081400A1 (CEPHALON, published 2017).
Numbering of substitutions follows the chain as printed.

Key:
[1] = target: T1, human TL1A extracellular domain with N-terminal HIS and FLAG tag (human, UniProt O95150 72-251); assay: SPR Run 5, Ab from supernatant captured on Protein A, TL1A 5 ug/mL, timepoint 220
T1 construct: the whole entry is named
T1 sequence: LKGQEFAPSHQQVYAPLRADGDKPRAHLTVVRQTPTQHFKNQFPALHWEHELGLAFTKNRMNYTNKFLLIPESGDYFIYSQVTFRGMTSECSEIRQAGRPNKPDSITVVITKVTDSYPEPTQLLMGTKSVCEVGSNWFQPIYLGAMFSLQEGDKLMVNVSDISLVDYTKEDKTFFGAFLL
From the text: (§1) 1.5. Antibody expression and antigen binding as determined by SPR. Using a CM5 sensor chip (GE Healthcare) Protein A (Pierce) was coupled to the chip surface using an amine coupling kit (GE Healthcare). Protein A was coupled on flow cell 1 and 2 (or alternatively 3 and 4) using a BIACORE® T200. […] The amount of supernatant or purified protein (as well as the concentration) injected during the capture stage varied between runs and is specified in the header of the Tables 3-11. At the end of injection of the supernatant or purified antibody the change in response units was measured. This value was reported as Capture Level in Tables 3-11. […] The response units were measured prior to the end of the dissociation phase. […] The sensorgrams were double referenced (flow cell 2 is subtracted from flow cell 1 and a buffer blank). As there were a large number of antibody variants to screen, these were screened across different runs (Tables 3-11). […] A summary of the conditions used in each run is below:
(§2) 2.1. […] In some experiment the antibodies were purified using Protein A chromatography (See 1.4) and purified antibodies were used in BIACORE® (GE Healthcare) experiments.

[2] = target: T1, human TL1A extracellular domain with …; assay: SPR Run 5, Ab from supernatant captured on Protein A, TL1A 5 ug/mL, timepoint 44
From the text: as §1, §2

[3] = target: T2, human TL1A extracellular domain with N-terminal HIS and FLAG tag (human) (UniProt O95150); assay: cell-based or functional assay
T2 sequence: T1 sequence

[4] = target: T3, human TL1A extracellular domain with N-terminal HIS and FLAG tag (human, UniProt O95150 72-251); assay: SPR run 2; supernatant on Protein A; TL1A 10 ug/mL; timepoint 44
T3 construct: whole entry named. ~70 kDa fraction purified by gel filtration
T3 sequence: T1 sequence
From the text: as §1, §2

[5] = target: T3, human TL1A extracellular domain with …; assay: SPR run 2; supernatant on Protein A; TL1A 10 ug/mL; timepoint 220
From the text: as §1, §2

B1: 320-373 (antibody, human IgG1, name in Kabat numbering, V domains shown)
VH: QVQLVQSGAEVKKPGASVKVSCKASGYTFTSYDINWVRQAPGQGLEWMGWLNPNSGNTGYAQKFQGRVTMTADRSTSTAYMELSSLRSEDTAVYYCAREVPETAAFEYWGQGTLVTVSS
VL: QSVLTQPPSVSGAPGQRVTISCTSSSSDIGAGLGVHWYQQLPGTAPKLLIEGYYNRPSGVPDRFSGSKSGTSASLTITGLLPEDEGDYYCQSYDGTLSQLFGGGTKLTVLG
notes: human IgG1, lambda
TL1A Binding Level (Late) [1]: -1 RU | TL1A Binding Level (Early) [2]: -1 RU

B2: 320-226 (antibody, human IgG1, name in Kabat numbering, V domains shown)
VH: B1 VH
VL: B1 VL with S27Q, Q99A
notes: human IgG1, lambda
Antibody IC50, TL1A induced caspase potency assay in TF-1 cells [3]: 0.03 mg/L | Fold improvement over 320-179, TL1A induced caspase potency assay in TF-1 cells [3]: 1 fold | TL1A Binding Level (Early) [4]: 250 RU | TL1A Binding Level (Late) [5]: 228 RU

B3: 320-384 (antibody, human IgG1, name in Kabat numbering, V domains shown)
VH: B1 VH
VL: B1 VL with Q99A, L100H
notes: human IgG1, lambda
TL1A Binding Level (Late) [1]: 2 RU | TL1A Binding Level (Early) [2]: 3 RU

B4: 320-393 (antibody, human IgG1, name in Kabat numbering, V domains shown)
VH: B1 VH with G26K
VL: B1 VL with Q99A
notes: human IgG1, lambda
TL1A Binding Level (Late) [1]: 11 RU | TL1A Binding Level (Early) [2]: 12 RU

B5: 320-378 (antibody, human IgG1, name in Kabat numbering, V domains shown)
VH: B1 VH
VL: B1 VL with Q99W
notes: human IgG1, lambda
TL1A Binding Level (Late) [1]: -1 RU | TL1A Binding Level (Early) [2]: -1 RU

B6: 320-381 (antibody, human IgG1, name in Kabat numbering, V domains shown)
VH: B1 VH
VL: B1 VL with Q99A, L100S
notes: human IgG1, lambda
TL1A Binding Level (Late) [1]: 1 RU | TL1A Binding Level (Early) [2]: 3 RU

B7: 320-376 (antibody, human IgG1, name in Kabat numbering, V domains shown)
VH: B1 VH
VL: B1 VL with Q99K
notes: human IgG1, lambda
TL1A Binding Level (Late) [1]: 1 RU | TL1A Binding Level (Early) [2]: 3 RU

B8: 320-382 (antibody, human IgG1, name in Kabat numbering, V domains shown)
VH: B1 VH
VL: B1 VL with Q99A, L100Q
notes: human IgG1, lambda
TL1A Binding Level (Late) [1]: 0 RU | TL1A Binding Level (Early) [2]: 0 RU

B9: 320-397 (antibody, human IgG1, name in Kabat numbering, V domains shown)
VH: B1 VH with Y27A
VL: B1 VL with Q99A
notes: human IgG1, lambda
TL1A Binding Level (Late) [1]: 12 RU | TL1A Binding Level (Early) [2]: 12 RU

B10: 320-390 (antibody, human IgG1, name in Kabat numbering, V domains shown)
VH: B1 VH with G26Q
VL: B1 VL with Q99A
notes: human IgG1, lambda
TL1A Binding Level (Late) [1]: 11 RU | TL1A Binding Level (Early) [2]: 12 RU

B11: 320-377 (antibody, human IgG1, name in Kabat numbering, V domains shown)
VH: B1 VH
VL: B1 VL with Q99L
notes: human IgG1, lambda
TL1A Binding Level (Late) [1]: -1 RU | TL1A Binding Level (Early) [2]: -1 RU

B12: 320-402 (antibody, human IgG1, name in Kabat numbering, V domains shown)
VH: B1 VH with Y27L
VL: B1 VL with Q99A
notes: human IgG1, lambda
TL1A Binding Level (Late) [1]: 10 RU | TL1A Binding Level (Early) [2]: 11 RU

B13: 320-379 (antibody, human IgG1, name in Kabat numbering, V domains shown)
VH: B1 VH
VL: B1 VL with Q99Y
notes: human IgG1, lambda
TL1A Binding Level (Late) [1]: 1 RU | TL1A Binding Level (Early) [2]: 3 RU

B14: 320-391 (antibody, human IgG1, name in Kabat numbering, V domains shown)
VH: B1 VH with G26D
VL: B1 VL with Q99A
notes: human IgG1, lambda
TL1A Binding Level (Late) [1]: 13 RU | TL1A Binding Level (Early) [2]: 14 RU

B15: 320-396 (antibody, human IgG1, name in Kabat numbering, V domains shown)
VH: B1 VH with G26Y
VL: B1 VL with Q99A
notes: human IgG1, lambda
TL1A Binding Level (Late) [1]: 11 RU | TL1A Binding Level (Early) [2]: 12 RU

B16: 320-229 (antibody, human IgG1, name in Kabat numbering, V domains shown)
VH: B1 VH
VL: B1 VL with S27K, Q99A
notes: human IgG1, lambda
Antibody IC50, TL1A induced caspase potency assay in TF-1 cells [3]: 0.04 mg/L | Fold improvement over 320-179, TL1A induced caspase potency assay in TF-1 cells [3]: 2 fold | TL1A Binding Level (Early) [4]: 268 RU | TL1A Binding Level (Late) [5]: 251 RU

B17: 320-401 (antibody, human IgG1, name in Kabat numbering, V domains shown)
VH: B1 VH with Y27H
VL: B1 VL with Q99A
notes: human IgG1, lambda
TL1A Binding Level (Late) [1]: 10 RU | TL1A Binding Level (Early) [2]: 11 RU

B18: 320-392 (antibody, human IgG1, name in Kabat numbering, V domains shown)
VH: B1 VH with G26H
VL: B1 VL with Q99A
notes: human IgG1, lambda
TL1A Binding Level (Late) [1]: 11 RU | TL1A Binding Level (Early) [2]: 12 RU

B19: 320-241 (antibody, human IgG1, name in Kabat numbering, V domains shown)
VH: B1 VH
VL: B1 VL with I29A, Q99A
notes: human IgG1, lambda
Antibody IC50, TL1A induced caspase potency assay in TF-1 cells [3]: 0.02 mg/L | Fold improvement over 320-179, TL1A induced caspase potency assay in TF-1 cells [3]: 1 fold | TL1A Binding Level (Early) [4]: 179 RU | TL1A Binding Level (Late) [5]: 122 RU

B20: 320-394 (antibody, human IgG1, name in Kabat numbering, V domains shown)
VH: B1 VH with G26L
VL: B1 VL with Q99A
notes: human IgG1, lambda
TL1A Binding Level (Late) [1]: 12 RU | TL1A Binding Level (Early) [2]: 13 RU

B21: 320-245 (antibody, human IgG1, name in Kabat numbering, V domains shown)
VH: B1 VH
VL: B1 VL with I29H, Q99A
notes: human IgG1, lambda
Antibody IC50, TL1A induced caspase potency assay in TF-1 cells [3]: 0.54 mg/L | Fold improvement over 320-179, TL1A induced caspase potency assay in TF-1 cells [3]: 0 fold | TL1A Binding Level (Early) [4]: 59 RU | TL1A Binding Level (Late) [5]: 26 RU

B22: 320-400 (antibody, human IgG1, name in Kabat numbering, V domains shown)
VH: B1 VH with Y27D
VL: B1 VL with Q99A
notes: human IgG1, lambda
TL1A Binding Level (Late) [1]: 11 RU | TL1A Binding Level (Early) [2]: 11 RU

B23: 320-383 (antibody, human IgG1, name in Kabat numbering, V domains shown)
VH: B1 VH
VL: B1 VL with Q99A, L100D
notes: human IgG1, lambda
TL1A Binding Level (Late) [1]: 1 RU | TL1A Binding Level (Early) [2]: 3 RU

B24: 320-375 (antibody, human IgG1, name in Kabat numbering, V domains shown)
VH: B1 VH
VL: B1 VL with Q99H
notes: human IgG1, lambda
TL1A Binding Level (Late) [1]: -1 RU | TL1A Binding Level (Early) [2]: -2 RU

B25: 320-398 (antibody, human IgG1, name in Kabat numbering, V domains shown)
VH: B1 VH with Y27S
VL: B1 VL with Q99A
notes: human IgG1, lambda
TL1A Binding Level (Late) [1]: 11 RU | TL1A Binding Level (Early) [2]: 12 RU

B26: 320-389 (antibody, human IgG1, name in Kabat numbering, V domains shown)
VH: B1 VH with G26S
VL: B1 VL with Q99A
notes: human IgG1, lambda
TL1A Binding Level (Late) [1]: 11 RU | TL1A Binding Level (Early) [2]: 12 RU

B27: 320-219 (antibody, human IgG1, name in Kabat numbering, V domains shown)
VH: B1 VH
VL: B1 VL with S26D, Q99A
notes: human IgG1, lambda
Antibody IC50, TL1A induced caspase potency assay in TF-1 cells [3]: 0.02 mg/L | Fold improvement over 320-179, TL1A induced caspase potency assay in TF-1 cells [3]: 2 fold | TL1A Binding Level (Early) [4]: 243 RU | TL1A Binding Level (Late) [5]: 220 RU

B28: 320-388 (antibody, human IgG1, name in Kabat numbering, V domains shown)
VH: B1 VH with G26A
VL: B1 VL with Q99A
notes: human IgG1, lambda
TL1A Binding Level (Late) [1]: 13 RU | TL1A Binding Level (Early) [2]: 14 RU

B29: 320-399 (antibody, human IgG1, name in Kabat numbering, V domains shown)
VH: B1 VH with Y27Q
VL: B1 VL with Q99A
notes: human IgG1, lambda
TL1A Binding Level (Late) [1]: 10 RU | TL1A Binding Level (Early) [2]: 10 RU

B30: 320-395 (antibody, human IgG1, name in Kabat numbering, V domains shown)
VH: B1 VH with G26W
VL: B1 VL with Q99A
notes: human IgG1, lambda
TL1A Binding Level (Late) [1]: 12 RU | TL1A Binding Level (Early) [2]: 13 RU

B31: 320-387 (antibody, human IgG1, name in Kabat numbering, V domains shown)
VH: B1 VH
VL: B1 VL with Q99A, L100Y
notes: human IgG1, lambda
TL1A Binding Level (Late) [1]: 10 RU | TL1A Binding Level (Early) [2]: 11 RU
